# In the DeepSol protein solubility set:
# Assay: soluble on expression in E. coli; label from the status in PepcDB or PDB records
row,Sequence,soluble on expression in E. coli
1,SMSKRTFSTVLPQIDTTGQLFVQTRKGQEVLIKVKHFMKQHILPAEKEVTEFYVQNENSVDKWGKPLVIDKLKEMAKVEGLWNLFLPAVSGLSHVDYALIAEETGKCFFAPDVFNCQAPDTGNMEVLHLYGSEEQKKQWLEPLLQGNITSCFCMTEPDVASSDATNIECSIQRDEDSYVINGKKWWSSGAGNPKCKIAIVLGRTQNTSLSRHKQHSMILVPMNTPGVKIIRPLSVFGYTDNFHGGHFEIHFNQVRVPATNLILGEGRGFEISQGRLGPGRIHHCMRTVGLAERALQIMCERATQRIAFKKKLYAHEVVAHWIAESRIAIEKIRLLTLKAAHSMDTLGSAGAKKEIAMIKVAAPRAVSKIVDWAIQVCGGAGVSQDYPLANMYAITRVLRLADGPDEVHLSAIATMELRDQAKRLTAKI,soluble
2,SNAAKPLPKEMEDFVQSSGENGVVVFSLGSMVSNMTEERANVIASALAQIPQKVLWRFDGNKPDTLGLNTRLYKWIPQNDLLGHPKTRAFITHGGANGIYEAIYHGIPMVGIPLFADQPDNIAHMKARGAAVRVDFNTMSSTDLLNALKRVINDPSYKENVMKLSRIQHD,soluble
3,SNAEELQALVDNIPAAIYHLDVSGQATIRFRPPAFLKTLVSEHAGTTRLNTLSMIHHDDRHMLSNAYSKLREAKHSLTLVYRIVTPEGKLHWIEDHMRSSFSDDGLFSGIDGILCEVT,soluble
4,SNAMHILVTGFAPFDNQNINPSWEAVTQLEDIIGTHTIDKLKLPTSFKKVDNIINKTLASNHYDVVLAIGQAGGRNAITPERVAINIDDARIPDNDDFQPIDQAIHLDGAPAYFSNLPVKAMTQSIINQGLPGALSNSAGTFVCNHTLYHLGYLQDKHYPHLRFGFIHVPYIPEQVIGKPDTPSMPLEKIVAGLTAAIEAISNDEDLHLALGTTE,soluble
5,SNAMKESNHLMDTPYSYLIRSIGMKLKTSADARLAELGLNSQQGRMIGYIYENQESGIIQKDLAQFFGRRGASITSMLQGLEKKGYIERRIPENNARQKNIYVLPKGAALVEEFNNIFLEVEESITKGLTKDEQKQLMSILIKVNRSM,soluble
6,SNAMKTLFLQYPACSTCQKAKKWLIENNIEYTNRLIVDDNPTVEELKAWIPLSGLPVKKFFNTSGVVYKELKLSSKLPTMTEEEQIALLATNGKLVKRPLVVTERFVLVGFKPEEWEKLK,soluble
7,SNAMKWKKSLAGLSSYKPGKREEEVMAELGLTKITKLSSNENPLGTSKKVAAIQANSSVETEIYPDGWASSLRKEVADFYQLEEEELIFTAGVDELIELLTRVLLDTTTNTVMATPTFVQYRQNALIEGAEVREIPLLQDGEHDLEGMLNAIDEKTTIVWICNPNNPTGNYIELADIQAFLDRVPSDVLVVLDEAYIEYVTPQPEKHEKLVRTYKNLIITRTFSKIYGLASARVGYGIADKEIIRQLNIVRPPFNTTSIGQKLAIEAIKDQAFIGECRTSNANGIKQYEAFAKRFEKVKLYPANGNFVLIDLGIEAGTIFSYLEKNGYITRSGAALGFPTAVRITIGKEEDNSAVIALLEKLL,soluble
8,SNAMLHIDDAMIEDAVTPQAAQEVLHAAFLDFGRGSAAMQRRVRTEAGGVKLSTLGAVIPGQGVAGAKVYTTIKGQFQFVILLFSAADGRPLATCDAGTLTRKRTAACTVLAAGALARPRSSVLGLFGAGTQGAEHAAQLSARFALEAILVHDPYASPEILERIGRRCGVPARMAAPADIAAQADIVVTATRSTTPLFAGQALRAGAFVGAIGSSLPHTRELDDEALRRARAVVVEWREQTLSEAGDLVLAAPDTGLDAKVVELADVLAGRAAARQADEDIVIYKSVGVGLEDVALAGYAYRRLAAQRGWPAP,soluble
9,SNAMNDIILKSLSTLITEQRNPNSVDIDRQSTLEIVRLMNEEDKLVPLAIESCLPQISLAVEQIVQAFQQGGRLIYIGAGTSGRLGVLDASECPPTFGVSTEMVKGIIAGGECAIRHPVEGAEDNTKAVLNDLQSIHFSKNDVLVGIAASGRTPYVIAGLQYAKSLGALTISIASNPKSEMAEIADIAIETIVGPEILTGSSRLKSGTAQKMVLNMLTTASMILLGKCYENLMVDVQASNEKLKARAVRIVMQATDCNKTLAEQTLLEADQNAKLAIMMILSTLSKSEAKVLLERHQGKLRNALSK,soluble
10,SNAMNFFTSPFSGIPLDQQVTNPNIIVGKHSYYSGYYHGHSFDDCVRYLHPERDDVDKLVIGSFCSIGSGAVFMMAGNQGHRSDWISTFPFFYQDNDNFADARDGFTRSGDTIIGHDVWIGTEAMIMPGVKIGHGAIIASRSVVTKDVAPYEVVGSNPAKHIKFRFSDVEIAMLLEMAWWNWPESWLKESMQSLCSSDIEGLYLNWQSKART,soluble
11,SNAMRSAQVYRWQIPMDAGVVLRDRRLKTRDGLYVCLRDGEREGWGEISPLPGFSQETWEEAQTALLTWVNDWLQGSEGLPEMPSVAFGASCALAELTGVLPEAADYRAAPLCTGDPDDLVLRLADMPGEKIAKVKVGLYEAVRDGMVVNLLLEAIPDLHLRLDANRAWTPLKAQQFAKYVNPDYRARIAFLEEPCKTRDDSRAFARETGIAIAWDESLREADFTFEAEEGVRAVVIKPTLTGSLDKVREQVAAAHALGLTAVISSSIESSLGLTQLARIAAWLTPGTLPGLDTLHLMQAQQIRPWPGSALPCLKREELERLL,soluble
12,SNAMSDTLYIKMDQAVEITKKQVTVGDVAKLQCKNKNITNRLKSMKLLEDTTKGKKRYIVSIMKIIEMADQTFQNVDIQNIGETECVVEFKTPKKDDGPM,soluble
13,SNAMSKDSESNLAQRQSQPKAHADLRINSHWIIPIENTTDHNLVSNILIDHCLLIKDGIILAIEPQSSCQIPATETLDLGQQVLMPGWVNAHGHAAMSLFRGLADDLPLMTWLQEHVWPAEAQHVDEHFVKQGTELAIAEMIQSGTTTFADMYFYPQQSGEAALAAGIRAVCFAPVLDFPTNYAQNADEYIRKAIECNDRFNNHPMNEQGLVQIGFGPHAPYTVSDEPLKEITMLSDQLDMPVQIHLHETDFEVSESLETFNKRPTQRLADIGFLNERVSCVHMTQVDDGDIKILQKTGASIIHCPESNLKLASGFCPIAKLSAANIPLAIGTDGAASNNDLDMFSETKTAALLAKGVSQDASAIPAIEALTMATLGGARALGIDDITGSLKPGKAADIQAIDLNTLSSQPVFDPVSHMVYCTKSTQVSHVWVNGRCLLKNGELTTLNEETLINHAKAWASAIRTPIK,soluble
14,SNAMTEEHVVLLDEQDKPSGTLEKYAAHTLNTPLHLAFSCWLFNEDGQLLVTRRSLSKKAWPGVWTNSVCGHPQQGETTEEAIIRRCRFELGVEITDLTPVYPHFSYRATDPNGIVENEVCPVFAARATSVLQVNSEEVMDYQWSEFKSVWKSLLATPWAFSPWMVMQASDEQARERLLNYCQR,soluble
15,SNAMTTKRVKKMGKEEMKEMFDLVIYAFNQEPTAERQERFEKLLSHTQSYGFLIDEQLTSQVMATPFQVNFHGVRYPMAGIGYVASYPEYRGEGGISAIMKEMLADLAKQKVALSYLAPFSYPFYRQYGYEQTFEQAEYTIKTEDWPRVKRVPGTIKRVSWADGKEVIKDVYLENQRAHSGGVIRETWWLDYTLNRASKPNNQAIYYSSEGKAEGYVIYRIAAGTFEIVEWNYLTNTAFKALAGFIGSHSGSVQSFHWINGFAGKDLNDLMPTPAASVKILPYMMARIVELQTFLEKYPFQSGEKETYSLEIEDSYGPWNEGIWTITIDEQGKATVTKGAAEKEGTAALKADIQTWTQLFLGYRSAETLSFYERLQGDATIAQRLGQRLVKGMPILEDYF,soluble
16,SNAWGLSVERSTYFLAPADRHYLADYARQAEDAWRREGAAGAERFRKELSAKEDTWVALVGPHLESLGSTPLSAEESSHLTFMRKLDWPMSRRLQDELPYVSIEFPGHPEQGRLVIQLPERLLPG,soluble
17,SNQLQQLQNPGESPPVHPFVAPLSYLLGTWRGQGEGEYPTIPSFRYGEEIRFSHSGKPVIAYTQKTWKLESGAPMHAESGYFRPRPDGSIEVVIAQSTGLVEVQKGTYNVDEQSIKLKSDLVGNASKVKEISREFELVDGKLSYVVRMSTTTNPLQPHLKAILDKL,soluble
18,SPAPVQDPHLIKVTVKTPKDKEDFSVTDTCTIQQLKEEISQRFKAHPDQLVLIFAGKILKDPDSLAQCGVRDGLTVHLVIKRQHRAMGNECPA,soluble
19,SPNPPKLTKQMNAIIDTVINYKDSSGRQLSEVFIQLPSRKELPEYYELIRKPVDFKKIKERIRNHKYRSLGDLEKDVMLLCHNAQTFNLEGSQIYEDSIVLQSVFKSARQ,soluble
